Each block holds one binder with its values, some of them ahead of it.
Key:
CRY1 PHR R109Q = target: T1, CRY1 PHR R109Q (mouse, UniProt P97784 1-491); assay: size exclusion chromatography
T1 construct: also called CRY1 PHR R109Q mutant; not shown: N-terminal His6 tag / vector residues
T1 sequence: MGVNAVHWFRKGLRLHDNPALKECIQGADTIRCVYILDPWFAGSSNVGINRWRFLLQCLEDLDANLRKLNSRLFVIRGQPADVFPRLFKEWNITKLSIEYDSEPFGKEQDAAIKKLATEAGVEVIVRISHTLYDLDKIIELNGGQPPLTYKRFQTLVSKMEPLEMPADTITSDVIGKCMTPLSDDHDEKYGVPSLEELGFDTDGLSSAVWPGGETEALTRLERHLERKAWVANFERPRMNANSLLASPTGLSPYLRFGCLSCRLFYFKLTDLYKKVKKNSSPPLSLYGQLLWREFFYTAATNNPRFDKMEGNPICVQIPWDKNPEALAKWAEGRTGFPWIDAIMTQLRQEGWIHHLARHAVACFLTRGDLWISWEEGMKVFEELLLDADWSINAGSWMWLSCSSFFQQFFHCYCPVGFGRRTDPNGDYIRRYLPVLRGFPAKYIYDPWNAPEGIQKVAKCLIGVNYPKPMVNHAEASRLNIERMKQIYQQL
Protocol: (§1) For analysis of complex formation by size-exclusion chromatography (SEC), purified proteins were injected on a Superdex 200 10/300 GL or Superdex 75 10/300 GL analytical column at 10-50 μM (˜250 μL, 1:1 molar ratio) in 20 mM HEPES pH 7.5, 125 mM NaCl, 5% glycerol and 2 mM TCEP. Proteins were incubated for ˜30 min. or overnight and analyzed by SEC. All size-exclusion columns were calibrated with a low-molecular-weight gel filtration standards kit (GE Healthcare Life Sciences). The content of each peak was evaluated by SDS-PAGE and Coomassie staining.

CRY1 PHR P39A = target: T2, CRY1 PHR P39A (mouse, UniProt P97784 1-491); assay: size exclusion chromatography
T2 construct: also called CRY1 PHR P39A mutant; not shown: N-terminal His6 tag / vector residues
T2 sequence: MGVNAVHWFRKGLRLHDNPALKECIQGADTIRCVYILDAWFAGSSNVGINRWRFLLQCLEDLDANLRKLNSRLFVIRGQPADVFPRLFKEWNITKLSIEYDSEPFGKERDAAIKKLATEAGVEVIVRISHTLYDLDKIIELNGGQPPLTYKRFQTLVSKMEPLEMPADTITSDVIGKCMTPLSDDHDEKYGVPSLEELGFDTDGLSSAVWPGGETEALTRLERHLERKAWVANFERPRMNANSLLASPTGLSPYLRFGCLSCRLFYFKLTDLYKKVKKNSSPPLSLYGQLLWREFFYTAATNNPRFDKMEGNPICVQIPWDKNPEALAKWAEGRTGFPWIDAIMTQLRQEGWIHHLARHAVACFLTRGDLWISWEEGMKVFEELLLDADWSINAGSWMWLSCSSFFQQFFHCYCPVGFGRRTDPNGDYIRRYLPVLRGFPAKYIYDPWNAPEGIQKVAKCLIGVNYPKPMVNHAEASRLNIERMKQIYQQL
Protocol: as §1

[1] = target: T3, His6-tagged mouse CRY1 PHR (photolyase homology region, amino acids 1-491) (mouse, UniProt P97784 1-491); assay: SEC of CRY1 PHR with preformed CLOCK:BMAL1 PAS-B dimer
T3 construct: Expressed in Sf9 cells; also called wild-type CRY1 PHR; not shown: N-terminal His6 tag / vector residues
T3 sequence: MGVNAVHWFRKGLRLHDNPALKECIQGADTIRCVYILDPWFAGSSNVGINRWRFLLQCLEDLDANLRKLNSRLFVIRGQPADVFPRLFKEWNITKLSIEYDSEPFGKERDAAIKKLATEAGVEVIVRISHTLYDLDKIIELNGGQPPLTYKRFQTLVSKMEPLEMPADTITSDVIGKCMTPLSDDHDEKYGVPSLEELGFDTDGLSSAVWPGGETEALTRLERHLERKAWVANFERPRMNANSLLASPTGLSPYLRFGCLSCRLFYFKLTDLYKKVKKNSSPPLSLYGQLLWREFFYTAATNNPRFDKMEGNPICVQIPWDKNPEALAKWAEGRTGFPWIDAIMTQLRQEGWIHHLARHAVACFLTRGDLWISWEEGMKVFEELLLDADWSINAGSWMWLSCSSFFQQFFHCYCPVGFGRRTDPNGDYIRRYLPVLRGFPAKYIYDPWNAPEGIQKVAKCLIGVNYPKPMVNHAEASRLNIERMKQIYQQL
Protocol: as §1

[2] = target: mouse BMAL1 PAS-B (residues 329-441) (mouse, UniProt Q9WTL8 329-441); assay: size exclusion chromatography on Superdex 75
Chain of mouse BMAL1 PAS-B (residues 329-441) (Q9WTL8 329-441): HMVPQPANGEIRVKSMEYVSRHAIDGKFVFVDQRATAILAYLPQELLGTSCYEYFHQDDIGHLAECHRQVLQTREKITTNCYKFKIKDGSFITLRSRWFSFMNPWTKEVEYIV
Protocol: as §1

[3] = target: T3, His6-tagged mouse CRY1 PHR (photolyase …); assay: size exclusion chromatography
Protocol: as §1

[4] = target: T3, His6-tagged mouse CRY1 PHR (photolyase …); assay: GST pull-down
Protocol: Soluble proteins were purified using GS4B resin (GE Healthcare). GST-tagged proteins were eluted with 10 mM glutathione and peak elution was desalted into 20 mM HEPES pH 7.5, 125 mM NaCl, 5% glycerol and 2 mM TCEP. […] After rotation at 4° C. overnight, reactions were washed 3 times with the above buffer and eluted with 6× SDS. Samples were boiled for ˜5 min. and loaded on an SDS-PAGE gel for visualization by Coomassie stain.

[5] = target: T4, CLOCK PAS-B domain (residues 261-395) site-specifically labeled with FAM at its N-terminus (human, UniProt O15516 261-395, FAM (fluorescein) at the N-terminus, attached with Sortase A from FAM-LPETGG onto the N-terminal glycine); assay: fluorescence polarization
T4 construct: Sortase ligation leaves residues of the FAM-LPETGG peptide in front of the N-terminal glycine; also called labeled CLOCK PAS-B; CLOCK PAS-B probe
T4 sequence: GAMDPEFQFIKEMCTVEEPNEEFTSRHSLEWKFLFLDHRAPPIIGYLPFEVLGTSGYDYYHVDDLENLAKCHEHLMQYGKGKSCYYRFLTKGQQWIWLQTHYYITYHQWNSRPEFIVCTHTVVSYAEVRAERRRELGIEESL

B3: CLOCK PAS-B H360Y (other)
chain: QFIKEMCTVEEPNEEFTSRHSLEWKFLFLDHRAPPIIGYLPFEVLGTSGYDYYHVDDLENLAKCHEHLMQYGKGKSCYYRFLTKGQQWIWLQTHYYITYYQWNSRPEFIVCTHTVVSYAEVRAERRRELGIEESL
notes: also called CLOCK PAS-B H360Y mutant
binding result [3]: no binding (tested: 10-50 µM, 1:1 molar ratio)

B4: GST-CLOCK PAS-B W362A (other, not shown: a dimerising Fc or GST; small tags and cut ends)
chain: QFIKEMCTVEEPNEEFTSRHSLEWKFLFLDHRAPPIIGYLPFEVLGTSGYDYYHVDDLENLAKCHEHLMQYGKGKSCYYRFLTKGQQWIWLQTHYYITYHQANSRPEFIVCTHTVVSYAEVRAERRRELGIEESL
binding result [4]: no binding

B5: CRY1 PHR (residues 1-491) after cleavage of the His6 tag, with residual vector sequence (Example 6) (other)
chain: GAMDPEFMGVNAVHWFRKGLRLHDNPALKECIQGADTIRCVYILDPWFAGSSNVGINRWRFLLQCLEDLDANLRKLNSRLFVIRGQPADVFPRLFKEWNITKLSIEYDSEPFGKERDAAIKKLATEAGVEVIVRISHTLYDLDKIIELNGGQPPLTYKRFQTLVSKMEPLEMPADTITSDVIGKCMTPLSDDHDEKYGVPSLEELGFDTDGLSSAVWPGGETEALTRLERHLERKAWVANFERPRMNANSLLASPTGLSPYLRFGCLSCRLFYFKLTDLYKKVKKNSSPPLSLYGQLLWREFFYTAATNNPRFDKMEGNPICVQIPWDKNPEALAKWAEGRTGFPWIDAIMTQLRQEGWIHHLARHAVACFLTRGDLWISWEEGMKVFEELLLDADWSINAGSWMWLSCSSFFQQFFHCYCPVGFGRRTDPNGDYIRRYLPVLRGFPAKYIYDPWNAPEGIQKVAKCLIGVNYPKPMVNHAEASRLNIERMKQIYQQL
binding result [5]: binds

The next lines start with results.

binding result [1]: binds
B1: mouse CLOCK PAS-B (residues 261-395) (other)
chain: QFIKEMCTVEEPNEEFTSRHSLEWKFLFLDHRAPPIIGYLPFEVLGTSGYDYYHVDDLENLAKCHEHLMQYGKGKSCYYRFLTKGQQWIWLQTHYYITYHQWNSRPEFIVCTHTVVSYAEVRAERRRELGIEESL
notes: also called CLOCK PAS-B domain; CLOCK PAS-B WT
binding result (CRY1 PHR R109Q): no binding (tested: 10-50 µM, 1:1 molar ratio)
binding result (CRY1 PHR P39A): no binding (tested: 10-50 µM, 1:1 molar ratio)

binding result [2]: no binding (tested: incubated 1:1)
B2: CLOCK PAS-B V315R (other)
chain: QFIKEMCTVEEPNEEFTSRHSLEWKFLFLDHRAPPIIGYLPFEVLGTSGYDYYHRDDLENLAKCHEHLMQYGKGKSCYYRFLTKGQQWIWLQTHYYITYHQWNSRPEFIVCTHTVVSYAEVRAERRRELGIEESL
notes: also called CLOCK PAS-B V315R mutant

From patent publication US20190324032A1 (University of California, published 2019)
